The results in this text go back to US20160130575.

For this series, the target named is alpha-thrombin (Homo sapiens) (UniProt P00734+P00734). Briefly: flow. Conditions: bead-based fluorescence; measured here; sequence not given.

Regarding Bock thrombin aptamer, the Kd (in general, the concentration at which binding is half-saturated) worked out at 2.1 nM.
As for Tasset thrombin aptamer, the figure is 10.4 nM.
